Measurements reported in the supplement of paper PMC10567573.

B1: IQUB (parent)
chain: CRNCINLQNEAQKRESFLKYKCLL

Variants of: B1
Experiment: protein stability index of a GFP-peptide fusion (GPS, HEK-293T) (PSI 1-6); higher = more stable
Settings: c terminus: a fixed tail appended
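Note: lentivirally expressed fusions sorted by FACS into six bins by GFP to DsRed ratio, PSI derived from sequencing read proportions per bin multiplied by bin number.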

Protein stability index, by site and new letter:
K13: C 1.17, E 1.29, L 2.79, R 1.74, Y 1.73, A 1.54, P 2.02, T 2.04, Q 1.75, G 2.04, W 2.06, D 1.58, N 1.85, I 2.01, V 1.78
F17: E 2.6, A 2.02, W 1.58, D 2.45, V 2.25, K 2.33, C 2.13, Y 1.59, G 2.84, Q 1.5, I 1.79, S 2.08, H 1.68, R 2.65, P 2.33
L23: D 2.7, N 2.12, F 2.53, H 1.6, C 2.98, P 2.69, E 1.75, R 2.17, S 2.18, Q 1.87, G 2.03
I5: P 2.04, D 2.05, Y 2.21, M 1.8, H 1.8, R 1.88, W 1.4, K 1.45, N 2.33, G 1.83, S 1.89, A 1.79, T 1.71
C22: M 1.79, Q 2.33, V 1.73, I 2.13, W 2.01, E 2.69, N 1.49, L 1.76, P 2.25, A 1.58, T 1.41, S 1.65, H 2.18, D 2.46, K 1.87
E15: P 2.05, N 2.51, T 2.24, A 2.85, D 2.13, L 2.77, M 3.62, K 1.92, W 1.62, H 2.75, F 2.57, C 1.47, R 1.08, Y 2.04, S 2.3, G 2.37, Q 2.01
N3: D 1.92, C 1.61, V 1.7, I 2.71, K 1.9, P 1.92, E 1.37, L 1.91, W 1.68, G 1.76, M 1.08, R 1.76, Q 2.7
Q8: N 1.87, A 1.63, R 2.17, G 1.57, D 1.13, T 1.61, K 1.38, S 2.82, L 3.13, P 1.68, H 2.08, V 2.12, E 2.53, W 2.46, I 1.72
C1: E 1.87, R 1.94, L 1.72, I 1.41, H 2.23, T 2.66, V 2.78, P 2.19, D 2.28, S 1.9, G 2.13, W 2.08, F 1.5, Q 2.01
C4: A 2.02, S 1.51, R 3.13, Q 2.13, G 1.85, V 1.92, T 1.69, D 1.98, P 2, M 2.12, L 1.53, H 1.74, K 2.15, F 2.15
S16: A 2.05, I 1.59, L 1.99, V 2.4, G 2.93, N 1.84, Q 2.06, F 2.23, D 2.11, E 2.15, P 2.2, T 1.59, W 1.69, H 2.25
L24: W 1.46, V 1.27, A 2.56, P 2.22, F 1.82, C 3.57, M 1.79, Y 1.69, I 1.75, T 1.8, K 2.53, E 1.65, Q 1.74, S 3.46
A11: K 1.78, M 2.25, Q 1.34, E 2.19, Y 1.69, I 1.82, L 1.98, H 1.66, R 1.19, C 1.59, P 1.71, D 2.08
E10: Q 2.23, G 1.68, I 1.35, H 2.56, A 1.52, N 1.94, M 2.14, R 1.7, C 1.71, F 2.7, K 2.09, P 1.37, D 1.63, T 1.71
R14: Q 1.89, I 2.86, N 2.26, G 1.67, D 2.66, M 1.39, T 1.84, C 1.64, K 2.02, V 2.36, A 1.02, P 2.35, S 2.56, F 2.34, W 1.86
K21: Q 2.28, V 3.66, L 1.38, D 2.06, Y 1.51, I 2.28, F 1.74, N 1.47, A 1.16, E 1.75, T 1.58
R2: C 1.66, W 1.98, I 1.45, E 2.23, D 2.3, L 1.93, F 1.89, G 1.28, P 2.25, K 1.92, M 1.89, T 1.93, H 2.56, Q 1.53, V 1.41, S 1.86, N 2.22
L18: A 1.57, T 1.88, Y 1.38, Q 1.85, S 1.39, I 1.51, R 1.65, H 2.23, V 1.88, M 2.72, P 2.11, E 2.25, D 1.63, G 2.9
L7: A 1.75, R 1.65, Q 1.75, S 2.29, D 2.31, K 1.95, F 1.68, V 2.01, Y 1.86, I 1.79, E 2.27, G 2.36, P 2.21, H 1.55, M 2.39, C 2.13
N6: C 1.76, Q 2.25, P 1.7, R 2.09, T 1.72, H 1.97, Y 1.48, I 2.59, K 1.76, L 2.27, A 1.77, G 1.91, V 1.88
Q12: P 2.83, E 2.29, H 1.75, K 2.06, A 2.34, S 1.31, F 2.23, C 1.81, Y 2.28, D 1.87, G 1.75, V 2.12, W 2.31, N 1.69
K19: A 1.46, W 1.01, L 2.69, H 1.68, T 2.23, P 1.46, F 2.54, Q 1.85, R 1.56, I 2.19, G 2.2, M 2.28, N 1.63, D 1.3
N9: H 1.53, V 1.53, K 1.98, W 2.72, L 2.12, C 1.57, E 1.42, A 1.84, D 2.28, T 1.33, P 2.33, R 2.42, Y 2.32
Y20: A 2.34, N 2.96, W 2.46, Q 2.96, L 2.14, M 2.66, C 3.65, P 1.89, R 1.83, G 3.06, F 1.66
